{"source": "paper PMC5892938", "about": "“SARNAclust: Semi-automatic detection of RNA protein binding motifs from immunoprecipitation data”"}
{"target": "GST-SBP-SLBP (stem-loop binding protein) (Homo sapiens, UniProt Q14493 1-270)", "test": "targeted RNA Bind-n-Seq; RBNS binding buffer: 25 mM Tris pH 7.5, 150 mM KCl, 3 mM MgCl2, 0.1% Tween, 0.5 mg/mL BSA, 1 mM DTT; 27 nM protein, 750 pM RNA pool; temperature not stated; high values mean tight binding", "conditions": "protein: recombinant; tags: N-terminal GST and SBP (pGEX6P1-SBP)", "outline": "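The protein, carrying a GST-SBP tag, was produced in Rosetta(DE3) pLysS E. coli, purified on glutathione, and mixed at 27 nM with 750 pM of a designed RNA oligo pool made by T7 transcription in RBNS binding buffer. RNA that bound was reverse transcribed using a barcoded primer of 10 nucleotides, amplified by PCR and sequenced on a MiSeq with 200-cycle paired-end reads. FLASH joined the reads, HISAT2 aligned them, and they were collapsed by barcode before the binding signal was taken as the DEseq binary-logarithm fold change of read counts for each sequence.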", "units": {"binding signal": "log2 fold change"}}
{"binder": "consensus (structured_RNA) RNA: GGUCACGUCUCAAUCAACUCCCAAAGGCCUUUCUAAAGGCCACCCAUCAACAGCUCGCAGUCAAG", "binding signal": "3.74 ± 0.124"}
{"binder": "consensus (structured_RNA) RNA: GGUCACGUCUCAAUCAACUCCCAAAGGCCCUUCUGAGGGCCACCCAUCAACAGCUCGCAGUCAAG", "binding signal": "3.16 ± 0.18"}
{"binder": "consensus (structured_RNA) RNA: GGUCACGUCUCAAUCAACUCCCAAAGGUCCUUUUCAGGGCCACCCAUCAACAGCUCGCAGUCAAG", "binding signal": "3.33 ± 0.12"}
{"binder": "consensus (structured_RNA) RNA: GGUCACGUCUCAAUCAACUCCCAAAGGUCCUUCUCAGGGCCACCCAUCAACAGCUCGCAGUCAAG", "binding signal": "3.16 ± 0.131"}
{"binder": "consensus (structured_RNA) RNA: GGUCACGUCUCAAUCAACUCCCAAAGGCUUUUCUAAAAGCCACCCAUCAACAGCUCGCAGUCAAG", "binding signal": "3.29 ± 0.116"}
{"binder": "consensus (structured_RNA) RNA: GGUCACGUCUCAAUCAACUCCCAAAGGCCUUUCUGAAGGCCACCCAUCAACAGCUCGCAGUCAAG", "binding signal": "3.32 ± 0.133"}
{"binder": "consensus (structured_RNA) RNA: GGUCACGUCUCAAUCAACUCCCAAAGGCUCUUCUCAGAGCCACCCAUCAACAGCUCGCAGUCAAG", "binding signal": "3.23 ± 0.14"}
{"binder": "consensus (structured_RNA) RNA: GGUCACGUCUCAAUCAACUCCCAAAGGUUCUUUUAAGAACCACCCAUCAACAGCUCGCAGUCAAG", "binding signal": "3.2 ± 0.125"}
{"binder": "consensus (structured_RNA) RNA: GGUCACGUCUCAAUCAACUCCCAAAGGCUUUUUUAAAAGCCACCCAUCAACAGCUCGCAGUCAAG", "binding signal": "3.48 ± 0.133"}
{"binder": "consensus (structured_RNA) RNA: GGUCACGUCUCAAUCAACUCCCAAAGGUCUUUUUUAAGACCACCCAUCAACAGCUCGCAGUCAAG", "binding signal": "3.2 ± 0.118"}
{"binder": "consensus (structured_RNA) RNA: GGUCACGUCUCAAUCAACUCCCAAAGGCUCUUCUUAGAGCCACCCAUCAACAGCUCGCAGUCAAG", "binding signal": "3.11 ± 0.136"}
{"binder": "consensus (structured_RNA) RNA: GGUCACGUCUCAAUCAACUCCCAAAGGCUCUUUUUAGAGCCACCCAUCAACAGCUCGCAGUCAAG", "binding signal": "3.17 ± 0.142"}
{"binder": "consensus (structured_RNA) RNA: GGUCACGUCUCAAUCAACUCCCAAAGGUCUUUCUAAAGGCCACCCAUCAACAGCUCGCAGUCAAG", "binding signal": "3.19 ± 0.133"}
{"binder": "consensus (structured_RNA) RNA: GGUCACGUCUCAAUCAACUCCCAAAGGUCUUUUUCAAGGCCACCCAUCAACAGCUCGCAGUCAAG", "binding signal": "3.26 ± 0.121"}
{"binder": "consensus (structured_RNA) RNA: GGUCACGUCUCAAUCAACUCCCAAAGGUUUUUUUCAAAACCACCCAUCAACAGCUCGCAGUCAAG", "binding signal": "3.04 ± 0.195"}
{"binder": "consensus (structured_RNA) RNA: GGUCACGUCUCAAUCAACUCCCAAAGGCCUUUUUCAAGGCCACCCAUCAACAGCUCGCAGUCAAG", "binding signal": "3.7 ± 0.124"}
{"binder": "consensus (structured_RNA) RNA: GGUCACGUCUCAAUCAACUCCCAAAGGCCCUUUUUAGGGCCACCCAUCAACAGCUCGCAGUCAAG", "binding signal": "3.48 ± 0.162"}
{"binder": "consensus (structured_RNA) RNA: GGUCACGUCUCAAUCAACUCCCAAAGGUCUUUCUAAAGACCACCCAUCAACAGCUCGCAGUCAAG", "binding signal": "3.73 ± 0.129"}
{"binder": "consensus (structured_RNA) RNA: GGUCACGUCUCAAUCAACUCCCAAAGGUCUUUCUUAAGACCACCCAUCAACAGCUCGCAGUCAAG", "binding signal": "3.14 ± 0.132"}
{"binder": "consensus (structured_RNA) RNA: GGUCACGUCUCAAUCAACUCCCAAAGGCUUUUCUCAAAGCCACCCAUCAACAGCUCGCAGUCAAG", "binding signal": "3.24 ± 0.124"}
{"binder": "consensus (structured_RNA) RNA: GGUCACGUCUCAAUCAACUCCCAAAGGUCCUUCUUAGGACCACCCAUCAACAGCUCGCAGUCAAG", "binding signal": "3.13 ± 0.132"}
{"binder": "consensus (structured_RNA) RNA: GGUCACGUCUCAAUCAACUCCCAAAGGCCCUUCUUAGGGCCACCCAUCAACAGCUCGCAGUCAAG", "binding signal": "3.46 ± 0.16"}
{"binder": "consensus (structured_RNA) RNA: GGUCACGUCUCAAUCAACUCCCAAAGGCUCUUUUAAGGGCCACCCAUCAACAGCUCGCAGUCAAG", "binding signal": "3.07 ± 0.12"}
{"binder": "consensus (structured_RNA) RNA: GGUCACGUCUCAAUCAACUCCCAAAGGUCCUUCUAAGGGCCACCCAUCAACAGCUCGCAGUCAAG", "binding signal": "3.27 ± 0.13"}
{"binder": "consensus (structured_RNA) RNA: GGUCACGUCUCAAUCAACUCCCAAAGGCUCUUCUCAGGGCCACCCAUCAACAGCUCGCAGUCAAG", "binding signal": "3.04 ± 0.124"}
{"binder": "consensus (structured_RNA) RNA: GGUCACGUCUCAAUCAACUCCCAAAGGUUCUUCUCAGAACCACCCAUCAACAGCUCGCAGUCAAG", "binding signal": "3.02 ± 0.121"}
{"binder": "consensus (structured_RNA) RNA: GGUCACGUCUCAAUCAACUCCCAAAGGUUCUUUUCAGAACCACCCAUCAACAGCUCGCAGUCAAG", "binding signal": "3.44 ± 0.114"}
{"binder": "consensus (structured_RNA) RNA: GGUCACGUCUCAAUCAACUCCCAAAGGUUCUUUUCAGGACCACCCAUCAACAGCUCGCAGUCAAG", "binding signal": "3 ± 0.116"}
{"binder": "consensus (structured_RNA) RNA: GGUCACGUCUCAAUCAACUCCCAAAGGUCCUUUUGAGGACCACCCAUCAACAGCUCGCAGUCAAG", "binding signal": "3.06 ± 0.144"}
{"binder": "consensus (structured_RNA) RNA: GGUCACGUCUCAAUCAACUCCCAAAGGUUCUUCUAAGAACCACCCAUCAACAGCUCGCAGUCAAG", "binding signal": "3.04 ± 0.122"}
{"binder": "consensus (structured_RNA) RNA: GGUCACGUCUCAAUCAACUCCCAAAGGUCCUUUUUAGGACCACCCAUCAACAGCUCGCAGUCAAG", "binding signal": "3.37 ± 0.117"}
{"binder": "consensus (structured_RNA) RNA: GGUCACGUCUCAAUCAACUCCCAAAGGUCCUUUUAAGGGCCACCCAUCAACAGCUCGCAGUCAAG", "binding signal": "3.26 ± 0.128"}
{"binder": "consensus (structured_RNA) RNA: GGUCACGUCUCAAUCAACUCCCAAAGGUCCUUCUCAGGACCACCCAUCAACAGCUCGCAGUCAAG", "binding signal": "3.44 ± 0.13"}
{"binder": "consensus (structured_RNA) RNA: GGUCACGUCUCAAUCAACUCCCAAAGGCUCUUCUAAGGGCCACCCAUCAACAGCUCGCAGUCAAG", "binding signal": "3.19 ± 0.123"}
{"binder": "consensus (structured_RNA) RNA: GGUCACGUCUCAAUCAACUCCCAAAGGCUCUUCUAAGAGCCACCCAUCAACAGCUCGCAGUCAAG", "binding signal": "3.2 ± 0.135"}
{"binder": "consensus (structured_RNA) RNA: GGUCACGUCUCAAUCAACUCCCAAAGGUCUUUUUAAAGGCCACCCAUCAACAGCUCGCAGUCAAG", "binding signal": "3.18 ± 0.125"}
{"binder": "consensus (structured_RNA) RNA: GGUCACGUCUCAAUCAACUCCCAAAGGUUUUUCUAAAAACCACCCAUCAACAGCUCGCAGUCAAG", "binding signal": "3.04 ± 0.144"}
{"binder": "consensus (structured_RNA) RNA: GGUCACGUCUCAAUCAACUCCCAAAGGCCUUUUUGAAGGCCACCCAUCAACAGCUCGCAGUCAAG", "binding signal": "3.34 ± 0.155"}
{"binder": "consensus (structured_RNA) RNA: GGUCACGUCUCAAUCAACUCCCAAAGGCUUUUUUCAAGGCCACCCAUCAACAGCUCGCAGUCAAG", "binding signal": "3.17 ± 0.125"}
{"binder": "consensus (structured_RNA) RNA: GGUCACGUCUCAAUCAACUCCCAAAGGCUUUUCUUAAAGCCACCCAUCAACAGCUCGCAGUCAAG", "binding signal": "3 ± 0.122"}
{"binder": "consensus (structured_RNA) RNA: GGUCACGUCUCAAUCAACUCCCAAAGGCUUUUUUAAAGGCCACCCAUCAACAGCUCGCAGUCAAG", "binding signal": "3.16 ± 0.137"}
{"binder": "consensus (structured_RNA) RNA: GGUCACGUCUCAAUCAACUCCCAAAGGCUCUUUUCAGAGCCACCCAUCAACAGCUCGCAGUCAAG", "binding signal": "3.73 ± 0.129"}
{"binder": "consensus (structured_RNA) RNA: GGUCACGUCUCAAUCAACUCCCAAAGGCCCUUUUGAGGGCCACCCAUCAACAGCUCGCAGUCAAG", "binding signal": "3.37 ± 0.174"}
{"binder": "consensus (structured_RNA) RNA: GGUCACGUCUCAAUCAACUCCCAAAGGUCCUUCUAAGGACCACCCAUCAACAGCUCGCAGUCAAG", "binding signal": "3.48 ± 0.135"}
